Data from patent US20200031947A1 (RINAT NEUROSCIENCE, published 2020).
Changes are numbered by the printed parent chain. Each block holds one binder with its values, some of them ahead of it.

Key:
[1] = target: T1, mouse GITR (mGITR), soluble analyte (mouse, UniProt O35714 20-153, limits assumed); experiment: SPR (Biacore T200), 37 C; purified antibody captured on anti-mouse Ig chip, mGITR as analyte (300 nM top, 3-fold series); 1:1 Langmuir fit
T1 construct: Soluble analyte in SPR; construct not described
T1 sequence (looked up): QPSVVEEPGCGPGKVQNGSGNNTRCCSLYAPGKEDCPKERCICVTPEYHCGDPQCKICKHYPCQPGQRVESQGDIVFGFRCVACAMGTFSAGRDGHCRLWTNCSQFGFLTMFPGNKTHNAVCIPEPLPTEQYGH
Description: (§1) The sensor chip preparation was performed at 25° C. with a running buffer of 10 mM HEPES, 150 mM NaCl, 0.05% (v/v) Tween-20, pH 7.4. An anti-mouse Fc sensor chip was made by activating all flow cells of a Biacore CM4 sensor chip with a 1:1 (v/v) mixture of 400 mM EDC and 100 mM NHS for 7 minutes, at a flow rate of 10 μL/min. An anti-mouse immunoglobulin reagent (Rabbit anti-mouse immunoglobulin antibodies from Biacore Mouse Antibody Capture Kit, GE Lifesciences Catalog # BR-1008-38) was diluted to 60 pg/mL in 10 mM Sodium Acetate pH 5.0 and injected on all flow cells for 7 minutes at 20 μL/min. All flow cells were blocked with 100 mM ethylenediamine in 150 mM Borate buffer pH 8.5 for 7 minutes at 10 μL/min.
The experiments were performed at 37° C. using a running buffer of 10 mM HEPES, 150 mM NaCl, 0.05% (v/v) Tween-20, pH 7.4, 1 mg/mL BSA.
Purified antibodies were captured at […] onto downstream flow cells (flow cells 2, 3 and 4) at a flow rate of 10 μL/min for 2 minutes. Different antibodies were captured on each flow cell. Flow cell 1 was used as a reference surface. Following capture of antibodies, analyte (buffer, or mGITR) was injected at 30 μL/min on all flow cells for two minutes. After the analyte injection, dissociation was monitored for 10 minutes followed by regeneration of all flow cells with one 3-minute injection of 10 mM Glycine pH 1.7. A 5-membered dilution series of mGITR was analyzed using this method, where the top concentration was 300 nM and the dilution factor was 3-fold. The 33 nM dilution was run in duplicate. Buffer cycles were collected for each captured antibody for double-referencing purposes (double-referencing as described in Myszka, J. Mol. Recognit. 12:279-284 (1999). The double-referenced sensorgrams were fit globally to a simple 1:1 Langmuir with mass transport binding model.

human GITR on cells [2] = target: T2, human GITR on cells (human, UniProt Q9Y5U5 26-162); experiment: cell-based or functional assay
T2 sequence: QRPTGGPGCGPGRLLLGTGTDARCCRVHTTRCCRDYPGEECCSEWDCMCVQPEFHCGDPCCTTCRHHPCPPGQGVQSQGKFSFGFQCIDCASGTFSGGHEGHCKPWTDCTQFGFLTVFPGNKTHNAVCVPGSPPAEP

[3] = target: T3, human GITR (hGITR), soluble analyte (human, UniProt Q9Y5U5 26-162); experiment: SPR (Biacore T200), 37 C; antibody captured on anti-human Fc chip, GITR as analyte; 1:1 Langmuir fit
T3 sequence: T2 sequence
Description: as §1, with “anti-human” for “anti-mouse”, “anti-human Fc” for “anti-mouse immunoglobulin”, “(Goat Anti-Human IgG Fc, SouthernBiotech” for “(Rabbit anti-mouse immunoglobulin antibodies from Biacore Mouse Antibody Capture Kit, GE Lifesciences”, “#2081-01)” for “# BR-1008-38)”, “[…]” for “60”, “4.5” for “5.0”
(§2) Antibodies were captured from undiluted supernatants onto downstream flow cells (flow cells 2, 3 and 4) at a flow rate of 10 μL/min for 2 minutes. Different antibodies were captured on each flow cell. Flow cell 1 was used as a reference surface. Following capture of antibodies, analyte (buffer, hGITR, or cyGITR) was injected at 30 μL/min on all flow cells for two minutes. After the analyte injection, dissociation was monitored for 10 minutes followed by regeneration of all flow cells with three 1-minute injections of 75 mM Phosphoric Acid. For each captured antibody, the following analyte injections were performed: buffer, 20 nM hGITR, 200 nM hGITR, 20 nM cyGITR and 200 nM cyGITR. Buffer cycles were collected for each captured antibody for double-referencing purposes (double-referencing as described in Myszka, J. Mol. Recognit. 12:279-284 (1999). The double-referenced sensorgrams were fit globally to a simple 1:1 Langmuir with mass transport binding model.

[4] = target: T4, cynomolgus GITR (cyGITR), soluble analyte (cynomolgus); experiment: as above
T4 construct: Soluble analyte in SPR; construct not described; also called cGITR
Description: as §1, with “anti-human” for “anti-mouse”, “anti-human Fc” for “anti-mouse immunoglobulin”, “(Goat Anti-Human IgG Fc, SouthernBiotech” for “(Rabbit anti-mouse immunoglobulin antibodies from Biacore Mouse Antibody Capture Kit, GE Lifesciences”, “#2081-01)” for “# BR-1008-38)”, “[…]” for “60”, “4.5” for “5.0”
as §2

human GITR on cells [5] = target: T2, human GITR on cells; experiment: flow cytometry on in vitro expanded human Tregs; unconjugated antibody detected with A647 goat anti-human Fc gamma F(ab')2; MFI on antibody positive cells
Description: Cultured Tregs would be tracked throughout expansion to check purity. Cells were re-suspended in FACS buffer, PBS with 2% FBS for analysis using fluorophore conjugated CD markers. FACS antibodies against GITR and other CD lymphocyte markers were prepared in FACS buffer at the appropriate concentration and incubated for 30 minutes at RT. Treg purity staining utilizes intracellular targets and were processed with Foxp3 fix/perm kit (Affymetrix/eBiosciense, San Diego, Calif.). Stained cells were resuspended in fresh FACS buffer and analyzed on a FACS analyzer LSRII or Fortessa (BD Biosciences, San Jose, Calif.). To generate kinetic and binding data unconjugated antibody was titrated from 10-0.001 ug/mL (1:10 in serial dilutions, triplicate wells per concentration) and incubated at 4c for 60 minutes with 1*10e5 expanded day 12 Tregs per well. Unbound antibody was washed from cells and an A647 labeled Fc gamma (Fcγ) Fragment Specific goat-anti-human affiniPure F(ab′)₂ IgG was used to detect bound antibody (Jackson ImmunoResearch Laboratories Inc, West Grove, Pa.). Analysis of stained cells completed with FlowJo (Treestar). Geometric mean of APC was used to calculate EC50 by log transforming the molar concentration and generating a non-linear fit curve in GraphPad Prism.

Kd [1]: 21 nM | koff [1]: 0.0065 s⁻¹ | kon [1]: 310000 M⁻¹ s⁻¹ | t1/2 [1]: 1.8 min
B2: anti-mGITR r21B6 mIgG2a (antibody, V domains shown)
VH: EAQLVESGGGLVQPGRSLKLSCEASGFTFTKYGMAWVRQAPTKGLEWVASIINSGGNTYYRDSVKGRFTISRDNAKSTLYLQMDSLRSEDTATYYCATDYYDGSYHSDVVDAWGQGVLVTVSS
VL: EIVLTQSPTTMAASPGEKVTITCRASSSLNYMHWFQQKSGTSPKPWIYDTSELASGVPDRFSGSGSGTSYSLTISSMEAEDAATYYCLQKNGYPLTFGSGTKLEIK
notes: also called m21B6 IgG2a

Kd [3]: 17 nM | koff [3]: 0.019 s⁻¹ | kon [3]: 1.1e+06 M⁻¹ s⁻¹ | t1/2 [3]: 0.61 min | Kd [4]: 13 nM | koff [4]: 0.0088 s⁻¹ | kon [4]: 670000 M⁻¹ s⁻¹ | t1/2 [4]: 1.3 min
B4: h3G7 AM (antibody, V domains shown)
VH: QVQLVQSGAEVKKPGASVKVSCKASGYTFTGATMNWVRQAPGQGLEWMGLINPYNGGIRYNQKFKGRVTMTRDTSTSTVYMELSSLRSEDTAVYYCARIGGYYDSMDYWGQGTLVTVSS
VL: DIQMTQSPSSLSASVGDRVTITCRASESVDPRGINFLNWYQQKPGKAPKLLIYAASNQAKGVPSRFSGSGSGTDFTLTISSLQPEDFATYYCQQALELPWTFGGGTKVEIK
notes: Whole IgG captured on an anti-human Fc chip

Kd [3]: 22 nM | koff [3]: 0.015 s⁻¹ | kon [3]: 690000 M⁻¹ s⁻¹ | t1/2 [3]: 0.76 min | Kd [4]: 69 nM | koff [4]: 0.023 s⁻¹ | kon [4]: 330000 M⁻¹ s⁻¹ | t1/2 [4]: 0.51 min
B5: h3G7 LF (antibody, V domains shown)
VH: B4 VH with N55T, S105T
VL: B4 VL with D30E, N57Q, Q58A, A59S
notes: as for B4

EC50 (read off the curve) (human GITR on cells [5]): ~0.03 µg/mL
B7: h10H2 N14 (antibody, IgG1, V domains shown)
VH: QVQLVQSGAEVKKPGSSVKVSCKASGGTFSRYWIEWVRQAPGQGLEWMGEILPGSGVTFENEKFKGRVTITADESTSTAYMELSSLRSEDTAVYYCARKGRYYAMDYWGQGTSVTVSS
VL: EIVLTQSPGTLSLSPGERATLSCRASQSIGTSIHWYQQKPGQAPRLLIYYASESVSGIPDRFSGSGSGTDFTLTISRLEPEDFAVYYCQQTYSWPATFGQGTKVEIK
notes: also called R14; h10H2 R14
EC50 of macrophage-mediated cytotoxicity (ADCP) of a GITR+ T cell line (human GITR on cells [2]): 2.01 nM

Kd [3]: 6.6 nM | koff [3]: 0.00154 s⁻¹ | kon [3]: 233000 M⁻¹ s⁻¹ | t1/2 [3]: 7.5 min | Kd [4]: > 100 nM | koff [4]: 0.011 s⁻¹ | t1/2 [4]: 1.1 min
B9: h10H2 AM (antibody, V domains shown)
VH: B7 VH with S113L
VL: B7 VL
notes: as for B4

The next lines start with the binder.

B1: anti-mGITR r18H12 mIgG2a (antibody, V domains shown)
VH: EVQLVESDGVLVQPGKSLTLSCAASGFTFSDYYMAWVRQAPTKGLEWVATISYDDITTFYRDSVKGRFTISRDTAKSTLYLQMDSLRSEDTATYYCTRGLQWPYVMDAWGQGALVTVSS
VL: DIVMTQSPSSLAVSAGETVTINCKSSQSLLYSGNQKSYLAWYQQKPGQSPKLLIYWASPRQSGVPDRFIGSGSGTDFTLTISSVQAEDMATYYCQQYYDAPPTFGGGTKLEIK
Kd [1]: 2.2 nM | koff [1]: 0.00049 s⁻¹ | kon [1]: 220000 M⁻¹ s⁻¹ | t1/2 [1]: 24 min

B3: h3G7 R5 (antibody, V domains shown)
VH: B4 VH with N55T
VL: B4 VL with D30E, N57Q, Q58A, A59S
notes: Only variable domains are tied to this name
EC50 of macrophage-mediated cytotoxicity (ADCP) of a GITR+ T cell line (human GITR on cells [2]): 0.92 nM | Kd [3]: 5 nM | koff [3]: 0.0045 s⁻¹ | kon [3]: 900000 M⁻¹ s⁻¹ | t1/2 [3]: 2.6 min | Kd [4]: 6.4 nM | koff [4]: 0.0038 s⁻¹ | kon [4]: 600000 M⁻¹ s⁻¹ | t1/2 [4]: 3 min

B6: h3G7 N9 (antibody, IgG1, V domains shown)
VH: B4 VH with A32Y, M34V, N35S, N55T
VL: B4 VL with D30Q, Q58P, A59S
EC50 of macrophage-mediated cytotoxicity (ADCP) of a GITR+ T cell line (human GITR on cells [2]): 0.692 nM

B8: h10H2 HU (antibody, V domains shown)
VH: B7 VH with F59N, E60Y, R101T
VL: B7 VL
notes: as for B4
Kd [3]: > 100 nM | koff [3]: 0.0563 s⁻¹ | t1/2 [3]: 0.21 min | Kd [4]: > 100 nM
